Data set [1] deals with neutrophil count. In words: Example 41 intravenous administration of lipoplexed G-CSF mRNA, neutrophil count. Particulars: mice IV, 10% lipoplex, 50 ug at days 0, 2, 4; day 5. It is filed as in vivo. The procedure:
Neutrophils were measured at days 1, 5 and 8. Controls included non-specific mammalian RNA or the formulation buffer alone (F.Buffer). The mice were bled at days 1, 5 and 8 to determine the effect of mRNA-encoded human G-CSF to increase neutrophil count. The dosing regimen is shown in Table 64 as are the resulting neutrophil counts (thousands/uL; K/uL).

The subject of data set [2] is Female BALB/C mice. In words: In vivo detection of innate immune response: human G-CSF and mouse IFN-alpha in serum after I.M. injection. Particulars: for IFN-alpha expression: mouse IFN-alpha in serum, 200 ug/mouse mRNA (R848 75 ug); for IFN-alpha expression / G-CSF protein: I.M., 8 hours after dosing; for PC Ratio: Protein:Cytokine ratio, G-CSF / IFN-alpha in mouse serum; for G-CSF protein: human G-CSF in mouse serum, 200 ug/mouse mRNA (R848 75 ug) in 5% sucrose.
Protocol: Blood is collected at 8 hours after dosing and using ELISA the protein levels of G-CSF and interferon-alpha (IFN-alpha) is determined by ELISA and are shown in Table 81.

Data set [3] can be described thus: Stability of modified RNA on storage (gel electrophoresis). It counts as physicochemical. The procedure:
Stability experiments were conducted to obtain a better understanding of storage conditions to retain the integrity of modified RNA. […] After the mRNA had been stored for 0 hours, 2 hours, 6 hours, 24 hours, 48 hours, 5 days and 14 days, the mRNA was analyzed by gel electrophoresis using a Bio-Rad EXPERION′ system. The modified, unmodified and lipoplexed G-CSF mRNA was also stored in RNASTABLE® (Biomatrica, Inc. San Diego, Calif.) at 40° C. or water at −80° C. or 40° C. for 35 days before being analyzed by gel electrophoresis.
mRNA samples stored at 4° C., 25° C. and 37° C. were stored in 1× TE buffer or the formulation buffer (150 mM sodium chloride, 2 mM calcium chloride, 2 mM phosphate, 0.5 mM EDTA at a pH of 6.5). The mRNA stored at 4° C. was stable to at least 60 days in both the TE and formulation buffer. At 25° C. the mRNA in formulation buffer was stable out to 14 days and the TE buffer was stable out to at least 6 days. Storage of mRNA in the formulation buffer at 37° C. was stable to 6 days compared to the TE buffer which was stable only until 4 days.

In data set [4] the test system is mice. Description: In vivo cytokine expression study (serum IFN-alpha). The settings on record: mouse serum; I.M. 200 ug mRNA; after 8 hours.
Protocol: After 8 hours serum was collected from the mice and analyzed for interferon-alpha (IFN-alpha) expression.
Data set [5] deals with Human primary foreskin fibroblasts (BJ fibroblasts). In words: Innate immune response in BJ fibroblasts, repeat transfection: cytokine response. It counts as cell-based.
Data set [6] deals with female Sprague Dawley rats. Description: In vivo delivery of modified RNA: G-CSF protein in rat serum (I.M.). Particulars: I.M. 400 ug in 100 ul, 5% sucrose, 8 hours after injection. How it is done:
Protein production of modified mRNA was evaluated by delivering modified G-CSF mRNA or modified Factor IX mRNA to female Sprague Dawley rats (n=6). […] Blood was collected 8 hours after injection and the G-CSF protein level in serum was measured by ELISA.

Where [7] appears, read: 250 ng transfected daily for 5 days, 6 hours.

B1: Unmodified G-CSF mRNA: human G-CSF mRNA SEQ ID NO: 6 having no modifications (natural NTPs) (nucleic acid, listed as Homo sapiens)
chain: GGGAAAUAAGAGAGAAAAGAAGAGUAAGAAGAAAUAUAAGAGCCACCAUGGCCGGUCCCGCGACCCAAAGCCCCAUGAAACUUAUGGCCCUGCAGUUGCUGCUUUGGCACUCGGCCCUCUGGACAGUCCAAGAAGCGACUCCUCUCGGACCUGCCUCAUCGUUGCCGCAGUCAUUCCUUUUGAAGUGUCUGGAGCAGGUGCGAAAGAUUCAGGGCGAUGGAGCCGCACUCCAAGAGAAGCUCUGCGCGACAUACAAACUUUGCCAUCCCGAGGAGCUCGUACUGCUCGGGCACAGCUUGGGGAUUCCCUGGGCUCCUCUCUCGUCCUGUCCGUCGCAGGCUUUGCAGUUGGCAGGGUGCCUUUCCCAGCUCCACUCCGGUUUGUUCUUGUAUCAGGGACUGCUGCAAGCCCUUGAGGGAAUCUCGCCAGAAUUGGGCCCGACGCUGGACACGUUGCAGCUCGACGUGGCGGAUUUCGCAACAACCAUCUGGCAGCAGAUGGAGGAACUGGGGAUGGCACCCGCGCUGCAGCCCACGCAGGGGGCAAUGCCGGCCUUUGCGUCCGCGUUUCAGCGCAGGGCGGGUGGAGUCCUCGUAGCGAGCCACCUUCAAUCAUUUUUGGAAGUCUCGUACCGGGUGCUGAGACAUCUUGCGCAGCCGUGAAGCGCUGCCUUCUGCGGGGCUUGCCUUCUGGCCAUGCCCUUCUUCUCUCCCUUGCACCUGUACCUCUUGGUCUUUGAAUAAAGCCUGAGUAGGAAG
B1: in data set [1], the “increase in neutrophil count above control” value is “no pharmacologic effect”. For the same molecule, in data set [2], the IFN-alpha expression entry is “robust cytokine response”. In data set [3], this molecule showed a freeze/thaw cycles tolerated of 12 cycles.

B2: G-CSF Gen 1: G-CSF mRNA SEQ ID NO: 6, Cap1, fully modified with 5-methylcytosine and pseudouridine (nucleic acid, listed as Homo sapiens)
chain: B1 chain
modifications: Cap1, 5mC/pseudouridine modified
In data set [4], B2 yielded an IFN-alpha of 8.867 pg/mL. For the same molecule, the IFN-beta in data set [5] (setting [7]) was found to be 0 pg/mL; in data set [5] (daily transfection, Day 1) it was 38 pg/mL; in data set [5] (daily transfection, Day 2), 1125 pg/mL; in data set [5] (daily transfection, Day 3), 100 pg/mL; in data set [5] (daily transfection, Day 4), 75 pg/mL; in data set [5] (daily transfection, Day 5), 213 pg/mL. Moreover, the IL-6 was determined as 3396 pg/mL in data set [5] (daily transfection, 6 hours); 3870 pg/mL in data set [5] (daily transfection, Day 1); 16341 pg/mL in data set [5] (daily transfection, Day 2); 25983 pg/mL in data set [5] (daily transfection, Day 3); 18922 pg/mL in data set [5] (daily transfection, Day 4); 15928 pg/mL in data set [5] (daily transfection, Day 5). Also, the G-CSF protein stood at 19.37 pg/mL in data set [6] and 356.5 pg/mL in data set [2]. Further, in data set [2], the “PC Ratio” value worked out at 40. The IFN-alpha expression result in data set [2] (listed as 5mc/pU modified G-CSF mRNA) is “low but detectable cytokine response”; in data set [2] (listed as GCSF mRNA 5mc/pU) it was 8.87 pg/mL.

B3: G-CSF Gen 2: G-CSF mRNA SEQ ID NO: 6, Cap1, fully modified with 5-methylcytosine and N1-methylpseudouridine (nucleic acid, listed as Homo sapiens)
chain: B1 chain
modifications: Cap1, 5mC/N1-methylpseudouridine modified
In turn, B3 came in with an IFN-alpha in data set [4] of 0 pg/mL. In addition, the IFN-beta in data set [5] (setting [7]) turned out to be 0 pg/mL; in data set [5] (daily transfection, Day 1), 0 pg/mL; in data set [5] (daily transfection, Day 2) it was 150 pg/mL; in data set [5] (daily transfection, Day 3) it was 213 pg/mL; in data set [5] (daily transfection, Day 4) it was 1400 pg/mL; in data set [5] (daily transfection, Day 5), 350 pg/mL. The IL-6 in data set [5] (daily transfection, 6 hours) turned out to be 3337 pg/mL; in data set [5] (daily transfection, Day 1), 3733 pg/mL; in data set [5] (daily transfection, Day 2), 974 pg/mL; in data set [5] (daily transfection, Day 3), 4972 pg/mL; in data set [5] (daily transfection, Day 4), 4122 pg/mL; in data set [5] (daily transfection, Day 5), 2906 pg/mL. In addition, the figures for the G-CSF protein in data set [6] and in data set [2] were 64.72 pg/mL and 748.1 pg/mL, respectively. For the same molecule, the “PC Ratio” value in data set [2] turned out to be 748. Also, the IFN-alpha expression entry is “no detectable IFN-alpha” in data set [2] (listed as 5mc/N1pU modified mRNA) and 0 pg/mL in data set [2] (listed as GCSF mRNA5mc/N1pU).
